Measured values taken from the supplement of paper PMC5998384.

How the values were obtained:
[1] = system: HeLa Kyoto; experiment: melting temperature (median over replicates), in situ; higher = more thermally stable
[2] = system: HeLa Kyoto; experiment: thermal stability score vs G1/S (z-score of summed log2 fold changes over temperatures); higher = more thermally stable than in G1/S
[3] = system: HeLa Kyoto; experiment: solubility in G1/S (NP-40 vs SDS abundance) (log2 ratio); higher = more soluble; conditions: cell cycle stage: G1/S
[4] = system: HeLa Kyoto; experiment: solubility change mitosis vs G1/S (difference of NP-40 vs SDS log2 ratios) (log2 ratio difference); higher = more soluble in mitosis
[5] = cell cycle stage: early G1 (4.5 h after nocodazole release)
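For melting temperature (median over replicates), in situ in this document: HeLa Kyoto cells synchronized by double thymidine or nocodazole block, proteins quantified by TMT10plex mass spectrometry, three independent biological replicates.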
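For solubility change mitosis vs G1/S (difference of NP-40 vs SDS log2 ratios) in this document: synchronized HeLa Kyoto cells (double thymidine block for G1/S, nocodazole release for mitosis), protein amounts in NP-40 versus SDS lysates quantified by mass spectrometry, three biological replicates.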
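For solubility in G1/S (NP-40 vs SDS abundance) in this document: HeLa Kyoto cells arrested at G1/S by double thymidine block, proteins quantified by TMT10plex mass spectrometry in mild NP-40 versus SDS extracts, three biological replicates.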
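For thermal stability score vs G1/S (z-score of summed log2 fold changes over temperatures) in this document: synchronized HeLa Kyoto cells, proteins quantified by TMT10plex mass spectrometry, three biological replicates, mitosis taken 0.5 h after nocodazole release, G1/S directly after double thymidine block.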

| Sequence | melting temperature ([1]; cell cycle stage: G1/S) | melting temperature ([1]; cell cycle stage: mitosis) | thermal stability score [2, 5] | thermal stability score ([2]; cell cycle stage: mitosis) | solubility in G1/S (log2) [3] | solubility change mitosis (log2) [4] |
| --- | --- | --- | --- | --- | --- | --- |
| MLRWLRDFVLPTAACQDAEQPTRYETLFQALDRNGDGVVDIGELQEGLRNLGIPLGQDAEEKIFTTGDVNKDGKLDFEEFMKYLKDHEKKMKLAFKSLDKNNDGKIEASEIVQSLQTLGLTISEQQAELILQSIDVDGTMTVDWNEWRDYFLFNPVTDIEEIIRFWKHSTGIDIGDSLTIPDEFTEDEKKSGQWWRQLLAGGIAGAVSRTSTAPLDRLKIMMQVHGSKSDKMNIFGGFRQMVKEGGIRSLWRGNGTNVIKIAPETAVKFWAYEQYKKLLTEEGQKIGTFERFISGSMAGATAQTFIYPMEVMKTRLAVGKTGQYSGIYDCAKKILKHEGLGAFYKGYVPNLLGIIPYAGIDLAVYELLKSYWLDNFAKDSVNPGVMVLLGCGALSSTCGQLASYPLALVRTRMQAQAMLEGSPQLNMVGLFRRIISKEGIPGLYRGITPNFMKVLPAVGISYVVYENMKQTLGVTQK [SLC25A24] | 56.8 °C | 57.8 °C | -1.13 | -0.922 | 0.296 | -0.0619 |
| MLSAASRVVSRAAVHCALRSPPPEARALAMSRPPPPRVASVLGTMEMGRRMDAPASAAAVRAFLERGHTELDTAFMYSDGQSETILGGLGLGLGGGDCRVKIATKANPWDGKSLKPDSVRSQLETSLKRLQCPQVDLFYLHAPDHGTPVEETLHACQRLHQEGKFVELGLSNYASWEVAEICTLCKSNGWILPTVYQGMYNATTRQVETELFPCLRHFGLRFYAYNPLAGGLLTGKYKYEDKDGKQPVGRFFGNSWAETYRNRFWKEHHFEAIALVEKALQAAYGASAPSVTSAALRWMYHHSQLQGAHGDAVILGMSSLEQLEQNLAATEEGPLEPAVVDAFNQAWHLVAHECPNYFR [AKR7A2] | 53.1 °C | 53.1 °C | 0.491 | 0.31 | 0.438 | -0.121 |
| MLSESSSFLKGVMLGSIFCALITMLGHIRIGHGNRMHHHEHHHLQAPNKEDILKISEDERMELSKSFRVYCIILVKPKDVSLWAAVKETWTKHCDKAEFFSSENVKVFESINMDTNDMWLMMRKAYKYAFDKYRDQYNWFFLARPTTFAIIENLKYFLLKKDPSQPFYLGHTIKSGDLEYVGMEGGIVLSVESMKRLNSLLNIPEKCPEQGGMIWKISEDKQLAVCLKYAGVFAENAEDADGKDVFNTKSVGLSIKEAMTYHPNQVVEGCCSDMAVTFNGLTPNQMHVMMYGVYRLRAFGHIFNDALVFLPPNGSDND [C1GALT1C1] | 53.9 °C | 53.4 °C | -0.0972 | -0.609 | 0.0342 | -0.0947 |
| MLSLLVWILTLSDTFSQGTQTRFSQEPADQTVVAGQRAVLPCVLLNYSGIVQWTKDGLALGMGQGLKAWPRYRVVGSADAGQYNLEITDAELSDDASYECQATEAALRSRRAKLTVLIPPEDTRIDGGPVILLQAGTPHNLTCRAFNAKPAATIIWFRDGTQQEGAVASTELLKDGKRETTVSQLLINPTDLDIGRVFTCRSMNEAIPSGKETSIELDVHHPPTVTLSIEPQTVQEGERVVFTCQATANPEILGYRWAKGGFLIEDAHESRYETNVDYSFFTEPVSCEVHNKVGSTNVSTLVNVHFAPRIVVDPKPTTTDIGSDVTLTCVWVGNPPLTLTWTKKDSNMVLSNSNQLLLKSVTQADAGTYTCRAIVPRIGVAEREVPLYVNGPPIISSEAVQYAVRGDGGKVECFIGSTPPPDRIAWAWKENFLEVGTLERYTVERTNSGSGVLSTLTINNVMEADFQTHYNCTAWNSFGPGTAIIQLEEREVLPVGIIAGATIGASILLIFFFIALVFFLYRRRKGSRKDVTLRKLDIKVETVNREPLTMHSDREDDTASVSTATRVMKAIYSSFKDDVDLKQDLRCDTIDTREEYEMKDPTNGYYNVRAHEDRPSSRAVLYADYRAPGPARFDGRPSSRLSHSSGYAQLNTYSRGPASDYGPEPTPPGPAAPAGTDTTSQLSYENYEKFNSHPFPGAAGYPTYRLGYPQAPPSGLERTPYEAYDPIGKYATATRFSYTSQHSDYGQRFQQRMQTHV [KIRREL] | 52 °C | 52.2 °C | -1.16 | -0.769 | -0.151 | 0.0763 |
